According to FireProtDB (doi:10.1093/protein/gzi067):
Values joined by “and” are separate entries in the source; they are usually repeats but may differ in a detail not shown here. Equal values may be shown once.

Settings: Bos taurus, pH 7, 25 °C, CD, MOPS 30 mM, reversible: yes (partial), whole UniProt chain shown

B1: Cytochrome b5 wild type, P00171 (protein)
chain: MAEESSKAVKYYTLEEIQKHNNSKSTWLILHYKVYDLTKFLEEHPGGEEVLREQAGGDATENFEDVGHSTDARELSKTFIIGELHPDDRSKITKPSESIITTIDSNPSWWTNWLIPAISALFVALIYHLYTSEN
With B1 the “denaturant midpoint (higher = more stable)” value (GdnHCl) was 1.27 M, the unfolding free energy (GdnHCl) was 13.4 kJ/mol and the “denaturant midpoint (higher = more stable)” value (GdnSCN) was 1.52 M and 2.04 M.
